{"source": "paper PMC1914068", "target": "LexA-TAP-Vpr (yeast two-hybrid bait) (HIV-1) (UniProt P05928)", "test": "two-hybrid; LexA baits (pEG202) and B42 preys (pJG4-5) in S. cerevisiae EGY48; β-galactosidase activity by the o-nitrophenyl-β-D-galactopyranoside method", "data": [{"substance": "Vpr as yeast two-hybrid fusion (LexA-Vpr bait and B42-Vpr prey) (from UniProt P05928 1-96) (natural protein)", "values": [{"measurement": "fold weaker than dimerization of wild-type Vpr (β-galactosidase activity)", "value": 3, "unit": "fold"}]}]}
